US20150337049A1 (Genmab, published 2015)
Numbering of substitutions follows the chain as printed. Names and notes keep the numbering of the source.

B1: bsIgG1-CD3×HER2 (IgG1-huCLB-T3/4×HER2-169), wild-type Fc (bispecific antibody)
heavy 1: not shown
VL 1: EIVLTQSPATLSLSPGERATLSCSASSSVTYVHWYQQKPGQAPRLLIYDTSKLASGIPARFSGSGSGTDFTLTISSLEPEDFAVYYCFQGSGYPLTFGSGTKLEMR
heavy 2: not shown
VL 2: EIVLTQSPATLSLSPGERATLSCRASQSVSSYLAWYQQKPGQAPRLLIYDASNRATGIPARFSGSGSGTDFTLTISSLEPEDFAVYYCQQRSNWPRTFGQGTKVEIK
notes: also called bispecific IgG1-CD3×HER2; (bs)IgG-CD3×HER2
B2: IgG1-CD3-N297Q (IgG1-huCLB-T3/4-F405L with N297Q) (antibody)
heavy: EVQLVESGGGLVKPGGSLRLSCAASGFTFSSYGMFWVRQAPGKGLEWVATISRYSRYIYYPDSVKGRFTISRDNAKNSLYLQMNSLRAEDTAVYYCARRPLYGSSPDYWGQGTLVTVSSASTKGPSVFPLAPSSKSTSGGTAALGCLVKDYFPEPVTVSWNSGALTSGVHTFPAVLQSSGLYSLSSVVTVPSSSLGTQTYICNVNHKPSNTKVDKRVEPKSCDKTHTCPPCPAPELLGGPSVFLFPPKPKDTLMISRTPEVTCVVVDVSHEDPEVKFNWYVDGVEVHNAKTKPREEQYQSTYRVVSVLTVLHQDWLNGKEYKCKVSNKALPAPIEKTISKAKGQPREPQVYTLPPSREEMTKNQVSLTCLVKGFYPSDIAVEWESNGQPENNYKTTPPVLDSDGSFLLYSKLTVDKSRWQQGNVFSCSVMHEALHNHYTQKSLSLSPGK
VL: B1 VL 1
notes: IgG1, F405L; also called NQ
B3: IgG1-CD3-LFLENQ (IgG1-huCLB-T3/4-F405L with L234F/L235E/N297Q) (antibody)
heavy: EVQLVESGGGLVKPGGSLRLSCAASGFTFSSYGMFWVRQAPGKGLEWVATISRYSRYIYYPDSVKGRFTISRDNAKNSLYLQMNSLRAEDTAVYYCARRPLYGSSPDYWGQGTLVTVSSASTKGPSVFPLAPSSKSTSGGTAALGCLVKDYFPEPVTVSWNSGALTSGVHTFPAVLQSSGLYSLSSVVTVPSSSLGTQTYICNVNHKPSNTKVDKRVEPKSCDKTHTCPPCPAPEFEGGPSVFLFPPKPKDTLMISRTPEVTCVVVDVSHEDPEVKFNWYVDGVEVHNAKTKPREEQYQSTYRVVSVLTVLHQDWLNGKEYKCKVSNKALPAPIEKTISKAKGQPREPQVYTLPPSREEMTKNQVSLTCLVKGFYPSDIAVEWESNGQPENNYKTTPPVLDSDGSFLLYSKLTVDKSRWQQGNVFSCSVMHEALHNHYTQKSLSLSPGK
VL: B1 VL 1
notes: IgG1, F405L
B4: IgG1-CD3-DA (IgG1-huCLB-T3/4-F405L with D265A) (antibody)
heavy: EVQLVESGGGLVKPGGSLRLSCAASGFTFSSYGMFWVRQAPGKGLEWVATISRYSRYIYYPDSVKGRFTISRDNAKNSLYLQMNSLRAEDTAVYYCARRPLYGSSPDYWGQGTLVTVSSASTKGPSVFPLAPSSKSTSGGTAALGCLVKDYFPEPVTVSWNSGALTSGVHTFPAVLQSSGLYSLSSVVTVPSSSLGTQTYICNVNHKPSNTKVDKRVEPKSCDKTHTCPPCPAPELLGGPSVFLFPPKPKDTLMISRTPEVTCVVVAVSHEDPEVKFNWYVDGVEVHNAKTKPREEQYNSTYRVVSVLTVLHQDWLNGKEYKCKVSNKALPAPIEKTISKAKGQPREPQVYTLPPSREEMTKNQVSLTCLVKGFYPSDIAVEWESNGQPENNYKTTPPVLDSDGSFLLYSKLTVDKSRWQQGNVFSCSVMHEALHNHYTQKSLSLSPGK
VL: B1 VL 1
notes: IgG1, F405L
B5: bsIgG1-CD3×HER2-DAPS (IgG1-huCLB-T3/4×HER2-169 with D265A/P331S) (bispecific antibody)
heavy 1: B3 heavy with F236L, E237L, D267A, Q299N, P333S
VL 1: B1 VL 1
heavy 2: QVQLVQSGAEVKKPGASVKVSCKASGYTFTNYGISWVRQAPGQGLEWMGWLSAYSGNTIYAQKLQGRVTMTTDTSTTTAYMELRSLRSDDTAVYYCARDRIVVRPDYFDYWGQGTLVTVSSASTKGPSVFPLAPSSKSTSGGTAALGCLVKDYFPEPVTVSWNSGALTSGVHTFPAVLQSSGLYSLSSVVTVPSSSLGTQTYICNVNHKPSNTKVDKRVEPKSCDKTHTCPPCPAPELLGGPSVFLFPPKPKDTLMISRTPEVTCVVVAVSHEDPEVKFNWYVDGVEVHNAKTKPREEQYNSTYRVVSVLTVLHQDWLNGKEYKCKVSNKALPASIEKTISKAKGQPREPQVYTLPPSREEMTKNQVSLTCLVKGFYPSDIAVEWESNGQPENNYKTTPPVLDSDGSFFLYSRLTVDKSRWQQGNVFSCSVMHEALHNHYTQKSLSLSPGK
VL 2: B1 VL 2
B6: IgG1-CD3-DAPS (IgG1-huCLB-T3/4-F405L with D265A/P331S) (antibody)
heavy: B3 heavy with F236L, E237L, D267A, Q299N, P333S
VL: B1 VL 1
notes: IgG1, F405L
B7: IgG1-CD3-… (IgG1-huCLB-T3/4-F405L with L234F/L235E/D265A/N297Q/P331S) (antibody)
heavy: B3 heavy with D267A, P333S
VL: B1 VL 1
notes: IgG1, F405L
B8: bsIgG1-CD3×HER2-DA (IgG1-huCLB-T3/4×HER2-169 with D265A) (bispecific antibody)
heavy 1: not shown
VL 1: B1 VL 1
heavy 2: not shown
VL 2: B1 VL 2
B9: IgG1-CD3-LALA (IgG1-huCLB-T3/4-F405L with L234A/L235A) (antibody)
heavy: B3 heavy with F236A, E237A, Q299N
VL: B1 VL 1
notes: IgG1, F405L
B10: bsIgG1-CD3×HER2-LFLE (IgG1-huCLB-T3/4×HER2-169 with L234F/L235E) (bispecific antibody)
heavy 1: B3 heavy with Q299N
VL 1: B1 VL 1
heavy 2: B5 heavy 2 with L238F, L239E, A269D, S335P
VL 2: B1 VL 2
B11: bsIgG1-CD3×HER2-LALA (IgG1-huCLB-T3/4×HER2-169 with L234A/L235A) (bispecific antibody)
heavy 1: B3 heavy with F236A, E237A, Q299N
VL 1: B1 VL 1
heavy 2: B5 heavy 2 with L238A, L239A, A269D, S335P
VL 2: B1 VL 2
B12: IgG1-CD3-LFLEDA (IgG1-huCLB-T3/4-F405L with L234F/L235E/D265A) (antibody, name in EU numbering)
heavy: B3 heavy with D267A, Q299N
VL: B1 VL 1
notes: IgG1, F405L
B13: IgG1-CD3-DANQ (IgG1-huCLB-T3/4-F405L with D265A/N297Q) (antibody)
heavy: B3 heavy with F236L, E237L, D267A
VL: B1 VL 1
notes: IgG1, F405L
B14: IgG1-CD3-LFLEPS (IgG1-huCLB-T3/4-F405L with L234F/L235E/P331S) (antibody)
heavy: B3 heavy with Q299N, P333S
VL: B1 VL 1
notes: IgG1, F405L
B15: IgG1-CD3-LFLE (IgG1-huCLB-T3/4-F405L with L234F/L235E) (antibody)
heavy: B3 heavy with Q299N
VL: B1 VL 1
notes: IgG1, F405L
B16: bsIgG1-CD3×HER2-DANQ (IgG1-huCLB-T3/4×HER2-169 with D265A/N297Q) (bispecific antibody)
heavy 1: B3 heavy with F236L, E237L, D267A
VL 1: B1 VL 1
heavy 2: B5 heavy 2 with N301Q, S335P
VL 2: B1 VL 2

Target: T1, C1q (from 3% pooled human serum) (human, UniProt P02745 23-245; P02746 28-253; P02747 29-245)
T1 construct: Native C1q of pooled human serum, detected with rabbit anti-human C1q
Assay: ELISA, antibody coated, 3% pooled human serum, anti-C1q detection
Experimental: Plates were washed and blocked with PBS supplemented with 0.025% Tween 20 and 0.1% gelatine. […] Detection was performed by addition of 1 mg/mL 2,2′-azino-bis(3-ethylbenzothiazoline-6-sulfonic acid) (ABTS; Roche, Mannheim, Germany) for about 30 min. The reaction was stopped by the addition of 100 μL 2% oxalic acid. Absorbance was measured at 405 nm in a microplate reader (Biotek, Winooski, Vt.). Log transformed data were analyzed by fitting sigmoidal dose-response curves with variable slope using GraphPad Prism software.

Row | Binder | binding result
1 | B1 | binds
2 | B2 | no binding (tested: coated at 7-30000 ng/mL)
3 | B3 | no binding (tested: coated at 7-30000 ng/mL)
4 | B4 | no binding (tested: coated at 7-30000 ng/mL)
5 | B5 | no binding (tested: coated at 7-30000 ng/mL)
6 | B6 | no binding (tested: coated at 7-30000 ng/mL)
7 | B7 | no binding (tested: coated at 7-30000 ng/mL)
8 | B8 | no binding (tested: coated at 7-30000 ng/mL)
9 | B9 | no binding (tested: coated at 7-30000 ng/mL)
10 | B10 | no binding (tested: coated at 7-30000 ng/mL)
11 | B11 | no binding (tested: coated at 7-30000 ng/mL)
12 | B12 | no binding (tested: coated at 7-30000 ng/mL)
13 | B13 | no binding (tested: coated at 7-30000 ng/mL)
14 | B14 | no binding (tested: coated at 7-30000 ng/mL)
15 | B15 | no binding (tested: coated at 7-30000 ng/mL)
16 | B16 | no binding (tested: coated at 7-30000 ng/mL)

Target: T2, HER2 on HER2-positive AU565 cells (human, UniProt P04626 23-1255)
T2 construct: whole, on cells
Assay: FACS, AU565 cells
Experimental: Cells (1×10^5 cells/well) were incubated in polystyrene 96-well round-bottom plates (Greiner bio-one 650101) with serial dilutions of antibody preparations (range 2 to 10000 ng/mL in 4-fold dilutions for Jurkat cells and range 1 to 3000 ng/mL in 4-fold dilutions for on AU565 cells) in 100 μL PBS/0.1% BSA/0.02% azide at 4° C. for 30 min.
After washing twice in PBS/0.1% BSA/0.02% azide, cells were incubated in 100 μL with secondary antibody at 4° C. for 30 min. As a secondary antibody, R-Phycoerythrin (PE)-conjugated goat-anti-human IgG F(ab′)₂ (109-116-098, Jackson ImmunoResearch Laboratories, Inc., West Grove, Pa.) diluted 1/100 in PBS/0.1% BSA/0.02% azide, was used for all experiments. Next, cells were washed twice in PBS/0.1% BSA/0.02% azide, resuspended in 150 μL PBS/0.1% BSA/0.02% azide and analyzed on a FACS CantoII (BD Biosciences). Binding curves were analyzed using non-linear regression (sigmoidal dose-response with variable slope) using GraphPad Prism V5.04 software (GraphPad Software, San Diego, Calif., USA).

Row | binding result | Binder
17 | binds | B1
18 | binds | B5
19 | binds | B8
20 | binds | B10
21 | binds | B11
22 | binds | B16
